From patent US20030224453A1, “Structural models for cytoplasmic domains of transmembrane receptors” (priority 1998, published 2003) come the findings set out here.

In one test the test system is filamin. Nature of the test: Affinity chromatography of cell lysates on cytoplasmic domain mimics, filamin (240 kDa) detected. The class given is binding. The following applies: NHS-biotin-labeled human platelet lysates; result in words. The text has this:
To study possible influences of the structural changes induced by the Gly insertions, protein models were produced having the β1A cytoplasmic domain with one, two and three additional Gly residues inserted after the heptad-repeat motif (G2-, G3-, G4-β1A) and compared with the G1-β1A construct. As an additional control, a variant of the G4-β1A peptide was produced with a Tyr to Ala substitution in the membrane-proximal NPXY-motif (G4-β1A-Y788A) (FIG. 1). This mutation interferes with focal adhesion targeting and activation of integrins. The purified proteins were bound via their N=terminal His-Tag to a Ni^2+−resin and used in affinity chromatography experiments with lysates of NHS-biotin-labeled human platelets. Marked changes in the pattern of protein binding were observed as a consequence of the Gly insertions. Polypeptides migrating at 45, 56, 58, 140 and 240 kDa bound only to the mimics with Gly insertions. […] Using monoclonal antibodies, the 240 kDa and 45 kDa proteins were identified as filamin and actin, respectively. […] Talin bound to the G1- and G4-β1A construct but not to the Y788A-G4β1A construct. Thus, the structural changes in the model induced by the insertion of glycines into the coiled-coil motif and the integrin cytoplasmic domain sequence alter interactions of these proteins with cellular components. […]

The target of test [1] is T1, talin (Homo sapiens, UniProt Q9Y490). The test is described as follows: Binding of resin-bound cytoplasmic domain model proteins to purified talin. Also on record: Talin was purified from human platelets in accordance with well known procedures; from tissue; host or cells: human platelets. The settings on record: result in words. On the procedure:
(§1) Purified recombinant cytoplasmic domain proteins (500 μg) were dissolved in a mixture of 5 ml 20 mM Pipes, 50 mM NaCl, pH 6.8 and 1 ml 0.1 M sodium acetate, pH 3.5 and bound overnight to 80 μl of Ni^2+ saturated His-bind resin (Novagen). […] Resins were washed twice with 20 mM Pipes, 50 mM NaCl, pH 6.8, and stored at 4° C. with 0.1% sodium azide as suspensions with one volume of this buffer. Fifty microliters of such a suspension were added to 4.5 ml of cell lysates which had been diluted tenfold with buffer A containing 0.05% TRITON X-100, 3 mM MgCl2 and protease-inhibitors. After incubation overnight at 4° C., resins were washed five times with this buffer and finally heated in 50 μl of reducing sample buffer for SDS PAGE. Samples were separated on 4-20% SDS polyacrylamide gels (NOVEX) and either stained with Coomassie or transferred to Immobilon P membranes (Amersham Corp., Arlington Hts, Ill.). Membranes were blocked with TBS, 5% nonfat-mild powder and stained with streptavidin-peroxidase (VECTASTAIN) or specific antibodies. Bound peroxidase was detected with an enhanced chemiluminescence kit (Amersham).
Talin was purified from human platelets in accordance with well known procedures with an additional purification step using chromatography on phosphocellulose and stored at 1 mg/ml in 10 mM NaCl, 50% glycerol. […]

Test [2] concerns the target T1, talin. Nature of the test: Affinity chromatography of cell lysates on cytoplasmic domain mimics, talin detected. It is filed as binding. Also noted: endogenous in cells; host or cells: human platelets (also Jurkat, HT1080, mouse C2C12 myotubes). The following applies: NHS-biotin-labeled human platelet lysates; result in words. The text has this:
To study possible influences of the structural changes induced by the Gly insertions, protein models were produced having the β1A cytoplasmic domain with one, two and three additional Gly residues inserted after the heptad-repeat motif (G2-, G3-, G4-β1A) and compared with the G1-β1A construct. As an additional control, a variant of the G4-β1A peptide was produced with a Tyr to Ala substitution in the membrane-proximal NPXY-motif (G4-β1A-Y788A) (FIG. 1). This mutation interferes with focal adhesion targeting and activation of integrins. The purified proteins were bound via their N=terminal His-Tag to a Ni^2+−resin and used in affinity chromatography experiments with lysates of NHS-biotin-labeled human platelets. Marked changes in the pattern of protein binding were observed as a consequence of the Gly insertions. Polypeptides migrating at 45, 56, 58, 140 and 240 kDa bound only to the mimics with Gly insertions. […] Using monoclonal antibodies, the 240 kDa and 45 kDa proteins were identified as filamin and actin, respectively. […] Talin bound to the G1- and G4-β1A construct but not to the Y788A-G4β1A construct. Thus, the structural changes in the model induced by the insertion of glycines into the coiled-coil motif and the integrin cytoplasmic domain sequence alter interactions of these proteins with cellular components. Alterations of the β1A tail that block cytoskeletal interactions, such as the Y788 mutation and β1B- and β1C-splice variants also abrogate binding to talin and filamin. Consequently, the observed in vitro interactions are likely to be biologically relevant.
Human platelets were obtained by centrifugation of freshly drawn blood samples at 1000 rpm for 20 minutes and sedimentation of the resulting platelet-rich plasma at 2600 rpm for 15 minutes. They were washed twice with 0.12 M NaCl, 0.0129 M trisodium citrate, 0.03 M glucose, pH 6.5, and once in Hepes-Saline (3.8 mM Hepes, 137 mM NaCl, 2.7 mM KCl, 5.6 mM D-Glucose, 3.3 mM Na2HPO4, pH 7.3-7.4). […]

For test [3], the target named is T2, filamin (ABP-280) (Homo sapiens, UniProt P21333). The test is described as follows: Binding of resin-bound cytoplasmic domain model proteins to purified filamin. Also on record: Human uterus filamin (ABP-280) was prepared as a 1.5 mg/ml solution; from tissue; host or cells: human uterus. The settings on record: result in words. The method, then:
as §1
Target sequence in this assay (P21333 whole entry, the tested form may be a part): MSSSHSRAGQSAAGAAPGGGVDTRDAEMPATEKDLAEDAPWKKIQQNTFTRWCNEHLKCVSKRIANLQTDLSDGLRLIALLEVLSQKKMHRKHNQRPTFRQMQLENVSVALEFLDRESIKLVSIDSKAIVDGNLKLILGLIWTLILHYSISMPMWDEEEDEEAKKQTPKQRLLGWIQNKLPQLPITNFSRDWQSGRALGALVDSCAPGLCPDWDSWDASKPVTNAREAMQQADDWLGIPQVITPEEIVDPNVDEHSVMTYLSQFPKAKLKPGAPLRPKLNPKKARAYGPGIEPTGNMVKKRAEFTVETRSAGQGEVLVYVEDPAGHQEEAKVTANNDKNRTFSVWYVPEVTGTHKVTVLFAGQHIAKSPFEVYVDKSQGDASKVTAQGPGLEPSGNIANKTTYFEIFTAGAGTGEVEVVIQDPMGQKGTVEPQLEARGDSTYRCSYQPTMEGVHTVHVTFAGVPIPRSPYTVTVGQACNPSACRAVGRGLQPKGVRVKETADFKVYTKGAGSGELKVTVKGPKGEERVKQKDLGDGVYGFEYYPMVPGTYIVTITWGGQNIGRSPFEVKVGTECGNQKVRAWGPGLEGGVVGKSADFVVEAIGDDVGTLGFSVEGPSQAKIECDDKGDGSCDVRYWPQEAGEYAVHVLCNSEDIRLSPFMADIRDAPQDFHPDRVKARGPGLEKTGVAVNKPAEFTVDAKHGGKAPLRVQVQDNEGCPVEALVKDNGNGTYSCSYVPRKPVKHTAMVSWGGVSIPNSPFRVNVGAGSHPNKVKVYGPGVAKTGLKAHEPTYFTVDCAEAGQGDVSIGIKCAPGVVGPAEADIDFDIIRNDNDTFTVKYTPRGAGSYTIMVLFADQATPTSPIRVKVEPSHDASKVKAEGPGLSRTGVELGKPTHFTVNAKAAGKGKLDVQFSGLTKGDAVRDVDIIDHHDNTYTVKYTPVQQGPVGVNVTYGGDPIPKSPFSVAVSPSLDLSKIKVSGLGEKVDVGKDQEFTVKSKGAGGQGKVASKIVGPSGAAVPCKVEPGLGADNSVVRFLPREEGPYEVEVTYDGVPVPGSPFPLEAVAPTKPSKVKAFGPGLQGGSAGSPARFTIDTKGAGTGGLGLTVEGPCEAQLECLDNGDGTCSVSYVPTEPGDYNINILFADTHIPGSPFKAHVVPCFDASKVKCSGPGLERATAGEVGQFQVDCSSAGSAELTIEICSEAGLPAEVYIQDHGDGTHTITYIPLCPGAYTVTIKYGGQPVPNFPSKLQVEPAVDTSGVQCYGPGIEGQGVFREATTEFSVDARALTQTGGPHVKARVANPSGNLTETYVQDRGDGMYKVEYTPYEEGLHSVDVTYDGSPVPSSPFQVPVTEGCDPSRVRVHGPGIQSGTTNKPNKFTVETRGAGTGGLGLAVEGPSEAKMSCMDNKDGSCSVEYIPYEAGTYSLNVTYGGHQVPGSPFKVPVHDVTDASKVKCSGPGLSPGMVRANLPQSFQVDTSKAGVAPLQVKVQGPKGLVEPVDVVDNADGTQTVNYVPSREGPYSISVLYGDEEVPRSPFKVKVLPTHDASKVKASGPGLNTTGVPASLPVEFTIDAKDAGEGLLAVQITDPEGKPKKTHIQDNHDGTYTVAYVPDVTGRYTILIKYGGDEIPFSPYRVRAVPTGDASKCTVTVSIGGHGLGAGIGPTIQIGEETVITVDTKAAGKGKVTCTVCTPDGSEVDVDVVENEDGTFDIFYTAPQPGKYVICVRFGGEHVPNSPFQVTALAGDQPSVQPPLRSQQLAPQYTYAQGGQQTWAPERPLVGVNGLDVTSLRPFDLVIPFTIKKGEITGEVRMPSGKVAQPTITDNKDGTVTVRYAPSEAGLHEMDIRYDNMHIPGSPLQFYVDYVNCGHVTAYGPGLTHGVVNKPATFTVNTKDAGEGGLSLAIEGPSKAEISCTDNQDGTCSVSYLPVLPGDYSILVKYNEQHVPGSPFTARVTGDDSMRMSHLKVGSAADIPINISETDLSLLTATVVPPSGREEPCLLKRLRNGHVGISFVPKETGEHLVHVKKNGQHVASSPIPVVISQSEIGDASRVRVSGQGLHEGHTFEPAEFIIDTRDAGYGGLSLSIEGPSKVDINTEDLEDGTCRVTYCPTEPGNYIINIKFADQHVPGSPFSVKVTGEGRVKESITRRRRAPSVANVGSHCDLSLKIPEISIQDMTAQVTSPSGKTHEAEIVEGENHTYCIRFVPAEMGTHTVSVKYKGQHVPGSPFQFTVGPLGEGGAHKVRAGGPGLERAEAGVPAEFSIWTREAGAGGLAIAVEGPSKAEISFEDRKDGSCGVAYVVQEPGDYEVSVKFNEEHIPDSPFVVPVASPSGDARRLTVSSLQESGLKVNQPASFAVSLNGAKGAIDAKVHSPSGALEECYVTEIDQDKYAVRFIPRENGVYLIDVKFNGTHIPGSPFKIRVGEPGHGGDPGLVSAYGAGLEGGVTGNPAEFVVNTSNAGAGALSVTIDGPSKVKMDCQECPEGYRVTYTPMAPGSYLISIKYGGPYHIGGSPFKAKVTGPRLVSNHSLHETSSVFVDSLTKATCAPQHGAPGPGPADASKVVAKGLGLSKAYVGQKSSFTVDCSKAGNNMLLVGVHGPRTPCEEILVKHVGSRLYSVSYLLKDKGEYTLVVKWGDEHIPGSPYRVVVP
Human uterus filamin (ABP-280) was prepared as a 1.5 mg/ml solution in 0.6 M KCl, 0.5 mM ATP, 0.5 mM DTT, 10 mM imidazole, pH 7.5. For binding assays performed as described in Example 5, this solution was diluted 1/12 with buffer A, 0.05% TRITON X-100, 3 mM MgCl2, 2 mg/ml BSA, protease-inhibitors (see Example 5), omitting the 50 mM NaCl (see Example 5), and resins with bound model proteins were added. Washing was performed in this buffer without BSA and with additional 50 mM KCl.
Talin was purified from human platelets in accordance with well known procedures with an additional purification step using chromatography on phosphocellulose and stored at 1 mg/ml in 10 mM NaCl, 50% glycerol. This solution was diluted to either 87 or 17 μg/ml talin with buffer A, 0.05% TRITON X-100, 3 mM MgCl2, 2 mg/ml BSA and protease inhibitors (see Example 5, including 0.1 mM E-64) and processed as indicated in the binding assays with cell lysates. […]

The target in test [4] is T2, filamin (ABP-280). The test is described as follows: densitometry of Coomassie-stained gels; purified filamin on model protein resin.
For test [5], the target named is T1, talin. The test is described as follows: densitometry of Coomassie-stained gels; purified talin on model protein resin.

T1 sequence (Q9Y490 whole entry, the tested form may be a part): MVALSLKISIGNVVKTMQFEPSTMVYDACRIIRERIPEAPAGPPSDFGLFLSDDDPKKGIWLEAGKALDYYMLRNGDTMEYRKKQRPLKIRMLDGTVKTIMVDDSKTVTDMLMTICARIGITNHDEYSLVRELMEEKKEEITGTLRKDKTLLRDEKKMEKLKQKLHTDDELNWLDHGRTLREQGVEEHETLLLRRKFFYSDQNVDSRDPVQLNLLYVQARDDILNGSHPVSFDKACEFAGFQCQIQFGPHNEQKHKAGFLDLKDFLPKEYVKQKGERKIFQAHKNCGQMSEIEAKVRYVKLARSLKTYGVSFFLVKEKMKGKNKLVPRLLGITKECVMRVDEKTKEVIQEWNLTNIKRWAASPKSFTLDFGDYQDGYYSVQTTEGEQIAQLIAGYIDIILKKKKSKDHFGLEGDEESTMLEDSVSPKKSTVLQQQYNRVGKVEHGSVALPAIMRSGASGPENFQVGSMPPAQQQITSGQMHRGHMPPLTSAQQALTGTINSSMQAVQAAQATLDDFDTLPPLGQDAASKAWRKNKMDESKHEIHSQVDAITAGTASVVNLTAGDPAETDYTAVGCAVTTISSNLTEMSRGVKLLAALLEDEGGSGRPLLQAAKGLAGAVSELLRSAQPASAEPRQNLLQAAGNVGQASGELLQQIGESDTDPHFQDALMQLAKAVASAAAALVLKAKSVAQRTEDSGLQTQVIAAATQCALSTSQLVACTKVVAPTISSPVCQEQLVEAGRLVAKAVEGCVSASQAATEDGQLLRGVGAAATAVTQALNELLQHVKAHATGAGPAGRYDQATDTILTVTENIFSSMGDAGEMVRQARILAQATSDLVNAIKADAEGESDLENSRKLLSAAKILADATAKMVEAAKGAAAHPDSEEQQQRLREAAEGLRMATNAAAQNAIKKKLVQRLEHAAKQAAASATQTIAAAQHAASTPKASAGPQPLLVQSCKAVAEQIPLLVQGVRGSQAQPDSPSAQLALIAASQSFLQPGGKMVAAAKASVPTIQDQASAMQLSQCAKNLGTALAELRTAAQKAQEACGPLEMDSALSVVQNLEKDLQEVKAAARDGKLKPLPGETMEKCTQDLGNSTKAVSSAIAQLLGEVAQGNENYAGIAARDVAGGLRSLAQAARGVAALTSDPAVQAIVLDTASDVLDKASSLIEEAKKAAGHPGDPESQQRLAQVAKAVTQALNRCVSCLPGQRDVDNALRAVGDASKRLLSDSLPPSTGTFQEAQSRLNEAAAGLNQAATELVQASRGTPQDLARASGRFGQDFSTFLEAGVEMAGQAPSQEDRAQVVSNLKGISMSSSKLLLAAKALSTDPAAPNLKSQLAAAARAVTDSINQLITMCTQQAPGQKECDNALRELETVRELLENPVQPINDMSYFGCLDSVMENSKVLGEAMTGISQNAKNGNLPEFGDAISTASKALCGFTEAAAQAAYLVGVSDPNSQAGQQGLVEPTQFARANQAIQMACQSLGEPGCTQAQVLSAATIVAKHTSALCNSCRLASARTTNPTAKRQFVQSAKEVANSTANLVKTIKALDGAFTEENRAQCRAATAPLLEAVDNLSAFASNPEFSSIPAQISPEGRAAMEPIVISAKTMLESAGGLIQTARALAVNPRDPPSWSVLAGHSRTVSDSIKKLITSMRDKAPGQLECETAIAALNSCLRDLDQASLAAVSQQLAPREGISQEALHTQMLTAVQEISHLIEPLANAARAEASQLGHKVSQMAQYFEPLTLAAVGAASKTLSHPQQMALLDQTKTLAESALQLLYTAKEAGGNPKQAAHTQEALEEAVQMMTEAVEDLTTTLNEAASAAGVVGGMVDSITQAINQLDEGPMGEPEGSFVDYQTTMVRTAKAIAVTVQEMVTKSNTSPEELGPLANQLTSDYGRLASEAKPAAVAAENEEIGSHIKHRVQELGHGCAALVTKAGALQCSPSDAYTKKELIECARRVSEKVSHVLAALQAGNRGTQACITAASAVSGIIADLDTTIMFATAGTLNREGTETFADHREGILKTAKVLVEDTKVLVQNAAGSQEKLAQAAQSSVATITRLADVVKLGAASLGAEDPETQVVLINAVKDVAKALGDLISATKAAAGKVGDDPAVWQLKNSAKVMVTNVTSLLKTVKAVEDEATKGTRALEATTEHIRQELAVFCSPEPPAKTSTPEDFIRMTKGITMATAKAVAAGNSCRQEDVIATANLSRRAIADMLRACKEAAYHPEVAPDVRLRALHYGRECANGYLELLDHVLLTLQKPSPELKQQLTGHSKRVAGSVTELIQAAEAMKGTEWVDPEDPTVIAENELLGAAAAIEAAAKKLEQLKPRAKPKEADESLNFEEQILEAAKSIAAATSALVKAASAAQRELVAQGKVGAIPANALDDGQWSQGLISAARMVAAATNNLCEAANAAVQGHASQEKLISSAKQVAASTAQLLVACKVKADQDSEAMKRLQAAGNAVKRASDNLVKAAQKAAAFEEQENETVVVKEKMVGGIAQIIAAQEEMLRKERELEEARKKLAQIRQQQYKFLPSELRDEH

B1: G4-β1A-Y788A: G4-β1A variant with Tyr to Ala substitution in the membrane-proximal NPXY-motif (protein)
chain: GSSHHHHHHSSGLVPRGSHMKLEALEGRLDALEGKLEALEGKLDALEGGGGKLLMIIHDRREFAKFEKEKMNAKWDTGENPIAKSAVTTVVNPKYEGK
For the molecule B1, the “filamin (240 kDa) binding from cell lysates” value in the test with filamin is on record as “suppressed the interaction with the 240 kDa”. Moreover, the “binding of purified talin compared to G4-β1A” value with talin [1] was “functionally reduced”. Further, the “talin binding from cell lysates” value with talin [2] was “not”. Moreover, the “binding of purified filamin, comparison between constructs” value (“binding of purified filamin” for short) in the test with filamin (ABP-280) [3] is given as “functionally reduced”.

B2: β7 construct (G1 or G4 variant not stated) (designed binder, part only; not given: number of added glycines, part only)
chain, part: GSSHHHHHHSSGLVPRGSHMKLEALEGRLDALEGKLEALEGKLDALEGKLSVEIYDRREYSRFEKEQQQLNWKQDSNPLYKSAITTTINPRFQEADSPTL
With B2, the “binding of purified filamin” value with filamin (ABP-280) [3] was “bound more filamin than G4-β1A or G4-β1D”. Besides, the fold more filamin bound than by the β1A model protein with filamin (ABP-280) [4] came to 8.4 fold.

B3: G4-β1B: G4 model protein with β1B splice variant cytoplasmic domain (protein)
chain: GSSHHHHHHSSGLVPRGSHMKLEALEGRLDALEGKLEALEGKLDALEGGGGKLLMIIHDRREFAKFEKEKMNAKWDTVSYKTSKKQSGL
Consider B3, for which the “binding of purified talin compared to G4-β1A” value with talin [1] is “functionally reduced”. Moreover, in the test with filamin (ABP-280) [3], the “binding of purified filamin” value is “functionally reduced”.

B4: β1D construct (G1 or G4 variant not stated) (designed binder, part only; not given: number of added glycines, part only)
chain, part: GSSHHHHHHSSGLVPRGSHMKLEALEGRLDALEGKLEALEGKLDALEGKLLMIIHDRREFAKFEKEKMNAKWDTQENPIYKSPINNFKNPNYGRKAGL
The molecule B4 gave a fold more talin bound than by the β1A model protein in the test with talin [5] of 9 fold.
